This is an account of results in the DeepSol protein solubility set.

A short description of this data set: soluble on expression in E. coli; label from the status in PepcDB or PDB records.
As to “GPGSMGMSVTMINAIPLLRSMHANCVCPVCFEVFKKPVCFPCGHILCRACATRCIAARPRCPLCNQAVPNMRHCAPLPQLSLLCVLTREVGLRASGLQLRSSVQNAATPLSHRNHDSSMKRHRGATADDAVEETQGEHQAPRPRRSSLSPPPEQRPFLSLREPRASHRVANAVAATEGSTANHAQHTSLPELLRAAAGETQRLQSESPPPPLLMVGEGDDVLLGEAPHRSIIAQVTTSLPSAIAHRVGDSGALGRGQDQPPTPTPPPALSPSPAPFSTPLQLMCNHITDHADQLDSTPLLSPLPFTAFAVVEAASVTAAASVTHRSAQASSRVLATEHASNAKKASSWSLWRRGRGVIHCTLTPPAARLLARQSVVADGAGRGKTEAASKTASSSSAASADTAASLWHRFGCCALCGLDVVQRAAVRQRLQHLLRSPTAHCDPAELAMQTEESLSLLLGPLWGVCCEVQEHSTNIAQSQVSTCEGEYTTTELDAVQGSYCCPCRGEVTAHHVTGVAHHNCLAWAGLLDFFTNTSLEDLPAAAAAGVYFVPSMTASLHMTVPLQDPLGVLAARTSGRVARWQLLAATLCHMHQRDADEESELGKRVQTSGESGAEGPLMTPRCALCEDGAPLLASNSPSFPFGAGLRVCEGTERGESSCGQQYHYPCALLAGASACIIFGLEDECNVLDASASTPVRDRSAGGKRRGVERPVEVWCGVCHERHEVCRRRV”, the “soluble on expression in E. coli” value is recorded as “not soluble”.

Regarding “MGSDKIHHHHHHMKEVVKLVLLGERQNSLNLSLYFNKYPPTIIYPEVLEDRNKKLASPSGSQRKISLLVLNQGVLQFNKIKETIEKSLPIETKVKLPQKAYELYKKYYQDYTDMLNSLHAITGKFKTQSRLVVGLGDESVYETSIRLLRNYGVPYIPGSAIKGVTRHLTYYVLAEFINEGNDFYKRAKTVQDAFMKGDPKEILSNAKVPERCSRLCKEFLRIFGEKKVPEIIDELIRIFGTQKKEGEVVFFDAIPIAEEIADKPILELDIMNPHYGPYYQSGEKNVPPPGDWYDPIPIFFLTVPKDVPFLVAVGGRDRELTEKAFSLVKLALRDLGVGAKTSLGYGRLVEYV”, the “soluble on expression in E. coli” value is “not soluble”.

Consider “MAFSAPEPELSVVVPTLNEAETVATLLAALAAQRDVALELLLCDGGSTDGTAALVRGRAGDLPFPVTVTETPPGRGRQMNAGAAAARGATFLFLHADSIIADPLALRRGLDHLAAARRSDKRAAGHFRLRFAGDSPSPLAYRFYERKARLHRPGCTHGDQGLLIPREFFDQVGPFDEGLPILEDVRLAERIAAMGTWVLLPAEIITSARRFETEGLRERQTLNAILMNFAAIGWQQGVEELVAGYRSQDRSGRLRLGPHLARIAGLTAALPRQERLRLWYLTGGYVRGNAWQIPLFLDVRNAWRRGGDDGATPLLSLHDRWFDLLTDNPAGRAAAALMTFLWFRLTLRREMKDWPGILRTPLEHHHHHH”, for which the “soluble on expression in E. coli” value was “not soluble”.

As to “MSLAQSVAGSSVLTPGLTVSGPHSHARHSATLPSAMTAFPAAPDLAPPSRAAQGERVLCAMSGGVDSSVTASLLKEQGYQVIGAMMRFWPDDKRTDTFDSCCSPDAAYEARRVAEQVGVPFYLLDYREPFQRHIVGPFLEEYARGRTPNPCVNCNTKVKFDELVKKAKMLGCRYVATGHYVKRVDNAQGEVEFHRGDDPRKDQTYFLWGTPRDALPYILFPVGELEKPQVREIAAERGLLTAQKPESQNICFVPGKVQDFVAEHLPQAQGYIREIATGEVVGEHLGTQFYTLGQKKGLGLYQSHRVRHVVHLDPDSNTVWVGDYDDCLWTGLKATDANYLLDLAELPTELEVQVRYRTAPVKAHVLHADAEGFELEFAEPQFAVAPGQSAVLYAGSRLLGGGLIADHARELPALTEGHHHHHH”, the “soluble on expression in E. coli” value was “soluble”.

Regarding “MGHHHHHHSHMLLAASKVLDRLKPVIGVNTDPERSEGHLCLPVRYTHSFPEALQKFYRGEFRWLWRQRIRLYLEGTGINPVPVDLHEQQLSLNQHNRALNIERAHDERSEASGPQLLPVRALNEVFIGESLSSRASYYEISVDDGPWEKQKSSGLNLCTGTGSKAWSFNINRVATQAVEDVLNIAKRQGNLSLPLNRELVEKVTNEYNESLLYSPEEPKILFSIREPIANRVFSSSRQRCFSSKVCVRSRCWDACMVVDGGTSFEFNDGAIASMMINKEDELRTVLLEQ”, the “soluble on expression in E. coli” value is on record as “not soluble”.

With “MAHHHHHHMGTLEAQTQGPGSMSGDRDDPRYPYPKDDAELRRRLTPMQYEVTQHAATEPPFTGEYTDTEDAGIYHCVVCGTALFESGAKYHSGCGWPSYFKPIDGEVIDEKMDYTHGMTRVEVRCNQCGAHLGHVFEDGPRDKTGLRYCINSAALNFEAKPERK”, the “soluble on expression in E. coli” value is “soluble”.

With “MVDTHKLADDVLQLLDNRIEDNYRVCVILVGSPGSGKSTIAEELCQIINEKYHTFLSEHPNVIEVNDRLKPMVNLVDSLKTLQPNKVAEMIENQGLFKDHVEDVNFQPVKYSALTSNNEECTAVVARGGTANAIRIAAVDNPVNVNKLAQDSINIAQIVPMDGFHLSRRCLDLFKDPQTAHKRRGSPSTFDSNNFLQLCKILAKTSLCKVSSHHKFYSTSSVFEKLSKTFSQTIPDIFVPGFNHALKDPTPDQYCISKFTRIVILEGLYLLYDQENWKKIYKTLADTGALLVYKIDIDYEATEERVAKRHLQSGLVTTIAEGREKFRSNDLLNGRDIDNHLIKVDNIVHIRNDHHHHHH”, the “soluble on expression in E. coli” value was “soluble”.

In the case of “MVPSNAESQSVVVIGAGIGGLTTAALLAQQGYRVKVYEQAAIVGGCASTFRRRGFIFDVGATQVAGLEPGGIHHRIFRQLQVDLPEATLCDPACAVFLPGEKQPINVWHDPERWQREREQQFPGSGRFWQLLQTLFQISWRFQGRDPVLPPRSMWDLGQLLGALRPDTLLTAPFVPLTVGDTLRLLGLGSDQRLKTFLDLQLKLYSQVGADETALLYAATALSVSQGPQGLWHLQGSMQTLGDRLVEALKNHGGELFCSQRVEQIHCGQGYVEGVTVRDVRSGEVRQEKAQQVVANLTVQNLLQALDQPLPGYQKRVTNLPSGSGAFVIYLGVKEDAIPPDCAPHLQFLYDHQGPIGENNSLFVSVSKPGDGRAPRGCRTVIASSFTDVAPWWNASREQYQALKESYTTTAISRLGEYFNLDESTIVHQESATPRTFDRYTARDQGIVGGVGQRLTTFGPFGFAPRTPIRNLWLVGDSVHPGEGTAGVSYSALTIARQICASGATNSLEHHHHHH”, the “soluble on expression in E. coli” value is “not soluble”.

Take “EPTNAPAALSRRFSVAPMMDWTDRHCRFFLRQLSRHTLLYTEMVTTGALLHGDRQRFLRYDECEHPLALQLGGSVPAELAACARLAEEAGYDEVNLNVGCPSDRVQHNMIGACLMGHPALVADCVKAMLDAVEIAVTVKHRIGINGRDSYAELCDFVGQVREAGCRSFTVHARIAILEGLSPKENREVPPLRYEVAAQLKKDFPDLEIVLNGGIKTLEACREHLQTFDGVMLGREAYHNPYLLAAVDSQLFGSEAPPLSRSEALLRLRPYIERHQAEGGAMHHVTRHILGLAQGFPGSRRFRQLLSVDVHKAADPLRVFDQA”: the “soluble on expression in E. coli” value is reported as “not soluble”.

Turning to “GPGSMPPKKGKKLKKKVKLQVPPQYEEQISKEPVSDPPTSQQSITSLPISVVEAALAVEESPEEDIVTFGAEALNRLLSMRHPQQIAADLTRSLSSLRQRLAQLEMEWLGFESSAVGSTYACRARDQKDKLEHEVRKTEKMTRHLILLGRVLDRIFELRTSVFDTERTAMEAEVEELTKRVEKNDEEIRSCYINRISLLHRYWVWRTLQELGDMTVGRTFAEELARGPRYRSIAIQNRILSDTLERQLEWLQRFLEKEEVFCGRVRQLERFVEEFTDMNDALEEVLTCRVCNLLFEDPVVFWPCGHSFCLQCFDSLSVAPSLFRCPLCGSMGSEGYVHNLLLSESVAKWMFKDACYADVHGALSLVRLHLSKFRRNIISSRMEQLEERLTAERGRELASDTLDDMDIVYRAY”, the “soluble on expression in E. coli” value is “not soluble”.

As to “GMADKTGTPHPLTEPGVWIERIGGRVFPPHLPALFLDRDGTINVDTDYPSDPAEIVLRPQMLPAIATANRAGIPVVVVTNQSGIARGYFGWSAFAAVNGRVLELLREEGVFVDMVLACAYHEAGVGPLAIPDHPMRKPNPGMLVEAGKRLALDLQRSLIVGDKLADMQAGKRAGLAQGWLVDGEAAVQPGFAIRPLRDSSELGDLLAAIETLGRDNRS”, the “soluble on expression in E. coli” value is “soluble”.

Regarding “MELQKALKEVREQKIAPVYLLIGTELYLTELFKTTLMKELLTEEDDQFNFFSFDMEETPLSAAIAEAETIPFFGDYRLVFVENPYFLTAERKTNGVEHDVNLLLNYLESPSPTTVLVFMASYEKLDERKKITKALKKNATVVDVNPMDEKAIRQYISQTIESEGYTIRSDAFDLLLQLTDLNLSKIMGELQKLYLYALETKTITRGAVQELVPKSLEHNVFDLTNEVLSGNSEKAVQLYEDLLLQGEETIKLNAILLNQIRLFLQTKILAKMGYQQANIADTLKVHPYRVKLALQQVRRFELSRLERLYDELVENDYRMKTGQMDKELLFQLFILKLTAQAK”, the “soluble on expression in E. coli” value was “not soluble”.

For “MQWRRCKVITRDFLMNADCKTAFGAIEESLLWSAEQRAASLAATLACRPDEGPVWIFGYGSLMWNPALEFTESCTGTLVGWHRAFCLRLTAGRGTAHQPGRMLALKEGGRTTGVAYRLPEETLEQELTLLWKREMITGCYLPTWCQLDLDDGRTVNAIVFIMDPRHPEYESDTRAQVIAPLIAAASGPLGTNAQYLFSLEQELIKLGMQDDGLNDLLVSVKKLLAENYPDGVLRPGFALEHHHHHH”, the “soluble on expression in E. coli” value is reported as “not soluble”.

For the sequence “MGHHHHHHSHMKSQGQHWYSSSDKNCKVSFREKLLIIDSNLGVQDVENLKFLCIGLVPNKKLEKSSSASDVFEHLLAEDLLSEEDPFFLAELLYIIRQKKLLQHLNCTKEEVERLLPTRQRVSLFRNLLYELSEGIDSENLKDMIFLLKDSLPKTEMTSLSFLAFLEKQGKIDEDNLTCLEDLCKTVVPKLLRNIEKYKREKAIQIVTPPVDKEAESYQGEEELVSQTDVKTFLEALPQESWQNKHAGSNGNRATNGAPSLVSRGMQGASANTLNSETSTKRAAVYRMNRNHRGLCVIVNNHSFTSLKDRQGTHKDAEILSHVFQWLGFTVHIHNNVTKVEMEMVLQKQKCNPAHADGDCFVFCILTHGRFGAVYSSDEALIPIREIMSHFTALQCPRLAEKPKLFFIQACQGEEIQPSVSIEADALNPEQ”, the “soluble on expression in E. coli” value was “not soluble”.

On to “GMTTEVKQSPRERLLEAAAALTYRDGVGIGVEALCKAAGVSKRSMYQLFESKDELLAASLKERSAAFVAKALPPADDGRSPRERILYVFERVESQAGAPDFQGCRYLAVQIELKDQAHPASRVAYQIKADLMAFFRSEAERGGASDPDLLARQLILVFDGASARAGIGADNLTGLIVPTLTTLLDAADMH”, for which the “soluble on expression in E. coli” value was “soluble”.

As for “ASQIERNLARISAEKNRLDTILRGMGEGLMVSDAGGTVTLVNPAFLELFGLTQSVEGRQIIEIARFPELHETFRAVVSSRSEHVEEMTLPLGDEKQVLTHWVPLMEEDELRGVVAVFHDIS”, the “soluble on expression in E. coli” value was “not soluble”.

“MGSDKIHHHHHHMGSLEQRRLEQDKRPDDVRDEYDRDEARLIHSAAFRRLQSKTQVLGLGESDFYRTRLTHSMEVAQIGRGIVQYLSKNKKFAEYHEHLPNTSLITAICLAHDIGHPPFGHGGEVALNYCMREHGGFEGNGQTLRILGKLDKYTGEHGLNPTRRMLLGILKYPVAYSELVNEKAYEQVPDKNAPYWLFEARMQKPPKCYHDCDQEIVDFIFDGFAREELAKFTQTEQPIDKDEPEKPLHKKSLYKSLDCTIMNLADNISYSLHDFEDALSLGMITQRHWREHFEGKEALFNDLAKQLVRNDLNFDLITVNLFHKESHCRKEAIGSLVNLMITNAIIEKNQSGCENPLLSLEVKLAPQIEKLRQHIFDLVCEQVIFDENVQQLEFKGQKLVIELFQTLAKDPNRFLPKPTRERLKKAGEGLEGEHKKSAQLRVICDFVSGMTDDYATKFYEKLFTPSKGSIFDRL”: the “soluble on expression in E. coli” value is “not soluble”.
